Here are results for one protein from paper PMC12186257, “Serendipitous and Systematic Chemoproteomic Discovery of MBLAC2, HINT1, and NME1‑4 Inhibitors from Histone Deacetylase-Targeting Pharmacophores” (ACS Chemical Biology, 2025).

Substrate in the data set: Nc1ncnc2c1ncn2[C@@H]1O[C@H](COP(=O)(O)NCCc2c[nH]c3ccccc23)[C@@H](O)[C@H]1O
The data set is described as follows: HINT1 enzyme activity assay (TrpA hydrolysis, fluorescence). The settings on record: other: substrate of hHint1. It is filed as biochemical, human. The text has this:
While the biologically relevant substrates of HINT1 have not been clearly elucidated, the protein has been implicated in opioid receptor signaling, − regulation of the melanoma-associated transcription factor MITF, , and DNA damage repair. These functions position HINT1 as a potential pharmacological target for treating conditions such as opioid resistance or melanoma. The only reported HINT1-targeting pharmacophores are nucleoside-based nonhydrolyzable substrate analogs, such as the carbamate TrpGC (Figure a). , We evaluated the inhibitory potential of KV-24 and KV-30 in enzyme activity assays using recombinant HINT1. […]
Mouse brain proteomics – LC-MS/MS. […] 10 µg of peptide mix was injected and analyzed using a 58 min gradient starting at 1% B up to 45% B (1 h method). […]
Mouse proteomics data analysis. The data files were analyzed with DIA-NN 1.8.1. […] The resulting protein group tables were further analyzed by Perseus 1.6.2.2. […]
CME of transferrin and confocal microscopy analyses.For transferrin uptake experiments HeLa cells were seeded on Matrigel-coated coverslips, and incubated with 0.1 % DMSO, or with 100 µM dynasore, 20 µM KV50, 2 µM KV65, or 2 µM KV79 in media containing 10% FCS at 37°C for 20 h. […] All inhibitor treatments were performed in duplicate, to enable quantification of surface levels of transferrin receptors, and to assess the capability of transferrin receptor endocytosis. […]

B1: recombinant HINT1 (hHint1) (Homo sapiens) (protein)
chain: MADEIAKAQVARPGGDTIFGKIIRKEIPAKIIFEDDRCLAFHDISPQAPTHFLVIPKKHISQISVAEDDDESLLGHLMIVGKKCAADLGLNKGYRMVVNEGSDGGQSVYHVHLHVLGGRQMHWPPG
As usually defined, the Km is the concentration of substrate that gives half-maximal velocity. For the protein B1, the Km is 0.139 µM.
